Data reported in patent US20150099705A1.

Molecular target: human Nav1.7 (sodium channel protein type 9 subunit alpha) (human) (UniProt Q15858)
Test: cell-based or functional assay

## wild type Protoxin-II (peptide)
  IC50, FLIPR assay: 4 nM
